Reference: paper PMC3791466, “Structure of a helicase–helicase loader complex reveals insights into the mechanism of bacterial primosome assembly” (Nature Communications, 2013)

T1: Bacillus subtilis helicase loader protein DnaI (B. subtilis), P06567
T1 chain: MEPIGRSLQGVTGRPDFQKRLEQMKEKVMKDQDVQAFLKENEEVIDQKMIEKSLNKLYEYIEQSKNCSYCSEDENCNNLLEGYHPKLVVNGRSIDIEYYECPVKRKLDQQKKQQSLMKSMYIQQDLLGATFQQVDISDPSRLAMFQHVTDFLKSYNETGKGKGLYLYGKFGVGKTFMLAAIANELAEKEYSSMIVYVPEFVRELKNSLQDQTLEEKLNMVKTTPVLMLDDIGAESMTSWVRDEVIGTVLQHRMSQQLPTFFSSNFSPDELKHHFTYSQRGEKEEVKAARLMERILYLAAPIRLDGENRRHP

T2: Bacillus stearothermophilus helicase DnaB (B. stearothermophilus, UniProt Q9X4C9 1-454)
T2 construct: replicative DNA helicase DnaB of Bacillus stearothermophilus; N-terminal domain, linker and C-terminal RecA-fold domain; both the NTD and the CTD are in the structure; also called BstDnaB; hexameric helicase ring
T2 sequence: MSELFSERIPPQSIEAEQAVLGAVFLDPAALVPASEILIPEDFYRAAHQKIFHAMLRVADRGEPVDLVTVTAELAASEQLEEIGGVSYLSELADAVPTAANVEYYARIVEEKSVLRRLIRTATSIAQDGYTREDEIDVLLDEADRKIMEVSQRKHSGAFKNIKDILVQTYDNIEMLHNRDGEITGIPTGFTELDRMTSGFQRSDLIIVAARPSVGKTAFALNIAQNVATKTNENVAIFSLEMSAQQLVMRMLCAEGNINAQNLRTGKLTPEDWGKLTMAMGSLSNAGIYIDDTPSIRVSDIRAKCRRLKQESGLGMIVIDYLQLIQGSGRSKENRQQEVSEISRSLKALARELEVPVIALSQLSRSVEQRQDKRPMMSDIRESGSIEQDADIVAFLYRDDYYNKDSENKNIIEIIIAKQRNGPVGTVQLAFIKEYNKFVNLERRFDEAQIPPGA


How the values were obtained:
[1] = target: T1, Bacillus subtilis helicase loader …; test: SEC-MALS; gel filtration and multiple-angle light scattering of BsuDnaI alone at 10 mg/ml; conditions: remark: other sources report otherwise
[2] = target: T1, Bacillus subtilis helicase loader …; test: crystal structure; 570-kDa complex of BstDnaB, BsuDnaI and HBD of BstDnaG, molecular replacement, 7.5 Å; proteins in the crystals confirmed by tryptic digestion and mass spectrometry; conditions: remark: other sources report otherwise
[3] = target: T2, Bacillus stearothermophilus helicase …; test: as above; conditions: both partners purified
[4] = target: T2, Bacillus stearothermophilus helicase …; test: crystal structure; another crystal form obtained under different conditions, content shown by molecular replacement; conditions: both partners purified

Binder	percent monomer at 10 mg/ml [1] [%]	stoichiometry N [1]	stoichiometry N [2]	stoichiometry N [3]	stoichiometry N [4] [HBDs per DnaB hexamer]
Bacillus subtilis helicase loader protein DnaI (natural protein, B. subtilis, primosomal helicase loader DnaI of Bacillus subtilis 168, cloned by PCR from genomic DNA into NcoI-XhoI of pET21d(+); the reverse primer has no stop codon before XhoI, so a C-terminal His tag of the vector is surmised; No cleavage of the tag is described; also called BsuDnaI) MEPIGRSLQGVTGRPDFQKRLEQMKEKVMKDQDVQAFLKENEEVIDQKMIEKSLNKLYEYIEQSKNCSYCSEDENCNNLLEGYHPKLVVNGRSIDIEYYECPVKRKLDQQKKQQSLMKSMYIQQDLLGATFQQVDISDPSRLAMFQHVTDFLKSYNETGKGKGLYLYGKFGVGKTFMLAAIANELAEKEYSSMIVYVPEFVRELKNSLQDQTLEEKLNMVKTTPVLMLDDIGAESMTSWVRDEVIGTVLQHRMSQQLPTFFSSNFSPDELKHHFTYSQRGEKEEVKAARLMERILYLAAPIRLDGENRRHP	93	2	6	3 loader dimers per helicase hexamer	
helicase-binding domain (HBD) of Bacillus stearothermophilus primase DnaG (domain or fragment, B. stearothermophilus, also called HBD of BstDnaG; HBD of primase DnaG) KLLPAFQNAERLLLAHMMRSRDVALVVQERIGGRFNIEEHRALAAYIYAFYEEGHEADPGALISRIPGELQPLASDVSLLLIADDVSEQELEDYIRHVLNRPKWLMLKVKEQEKTEAERRKDFLTAARIAKEMIEMKKMLSSS				3 HBDs per helicase hexamer	3
